Experimental data as given in publication PMC2913173 (Journal of molecular biology, 2009).

Key:
Assay in all cases: flow cytometry on cells
[1] = target: T1, Bak(72–89)–eCPX fusion displayed on E. coli (UniProt Q16611 72-89)
T1 chain (looked up): GQVGRQLAIIGDDINRRY

[2] = target: T2, Bak(72–89) R88A–eCPX fusion displayed on E. coli (UniProt Q16611 72-89, R88A)
T2 chain (looked up): GQVGRQLAIIGDDINRAY

[3] = target: T3, Bak(72–89) R88E–eCPX fusion displayed on E. coli (UniProt Q16611 72-89, R88E)
T3 chain (looked up): GQVGRQLAIIGDDINREY

[4] = target: T4, Bak(72–89) R88Q–eCPX fusion displayed on E. coli (UniProt Q16611 72-89, R88Q)
T4 chain (looked up): GQVGRQLAIIGDDINRQY

[5] = target: T5, Bak(72–89) Y89A–eCPX fusion displayed on E. coli (UniProt Q16611 72-89, Y89A)
T5 chain (looked up): GQVGRQLAIIGDDINRRA

[6] = target: T6, Bak(72–88)–eCPX fusion displayed on E. coli (UniProt Q16611 72-88)
T6 chain (looked up): GQVGRQLAIIGDDINRR

[7] = target: T7, Bak(72–87)–eCPX fusion displayed on E. coli (UniProt Q16611 72-87)
T7 chain (looked up): GQVGRQLAIIGDDINR

- median fluorescence [1]: 19.1 AU
- median fluorescence [2]: 24.6 AU
- median fluorescence [3]: 8.4 AU
- median fluorescence [4]: 11.1 AU
- median fluorescence [5]: 11.9 AU
- median fluorescence [6]: 8.3 AU
- median fluorescence [7]: 2.1 AU
B1: biotinylated Bcl-2 chimera (isoform 2): residues 1–34 of Bcl-2, residues 35–50 of Bcl-xL, residues 92–207 of Bcl-2 (other, UniProt P10415 1-34, looked up)
chain: MAHAGRTGYDNREIVMKYIHYKLSQRGYEWDAGDTEAPEGTESEMETPSAVVHLTLRQAGDDFSRRYRRDFAEMSSQLHLTPFTARGRFATVVEELFRDGVNWGRIVAFFEFGGVMCVESVNREMSPLVDNIALWMTEYLNRHLHTWIQDNGGWDAFVELYGPSMR
modifications: biotin on the lysine of the biotin acceptor peptide (…)
